# Measurements published in US20260234255A1 (Genmab, published 2026).
# B1: bsG1-huCD3-FEALxCD30-MDX060-FEAR (bispecific antibody, human IgG1, kappa, lambda)
# heavy 1: not shown
# light 1: not shown
# heavy 2: QVQLQQWGAGLLKPSETLSLTCAVYGGSFSAYYWSWIRQPPGKGLEWIGDINHGGGTNYNPSLKSRVTISVDTSKNQFSLKLNSVTAADTAVYYCASLTAYWGQGSLVTVSSASTKGPSVFPLAPSSKSTSGGTAALGCLVKDYFPEPVTVSWNSGALTSGVHTFPAVLQSSGLYSLSSVVTVPSSSLGTQTYICNVNHKPSNTKVDKRVEPKSCDKTHTCPPCPAPEFEGGPSVFLFPPKPKDTLMISRTPEVTCVVVAVSHEDPEVKFNWYVDGVEVHNAKTKPREEQYNSTYRVVSVLTVLHQDWLNGKEYKCKVSNKALPAPIEKTISKAKGQPREPQVYTLPPSREEMTKNQVSLTCLVKGFYPSDIAVEWESNGQPENNYKTTPPVLDSDGSFFLYSRLTVDKSRWQQGNVFSCSVMHEALHNHYTQKSLSLSPG
# light 2: DIQMTQSPTSLSASVGDRVTITCRASQGISSWLTWYQQKPEKAPKSLIYAASSLQSGVPSRFSGSGSGTDFTLTISSLQPEDFATYYCQQYDSYPITFGQGTRLEIKRTVAAPSVFIFPPSDEQLKSGTASVVCLLNNFYPREAKVQWKVDNALQSGNSQESVTEQDSKDSTYSLSSTLTLSKADYEKHKVYACEVTHQGLSSPVTKSFNRGEC
# notes: also called bsG1-huCD3xCD30-MDX060
# Key:
# [1] = target: T1, human CD30 (human, UniProt P28908 19-595); assay: flow cytometry, KI-JK cells, experiment N = 1
# T1 construct: The same molecule is used for CD30 on HL/ALCL/NHL cell lines; also called huCD30; TNFRSF8
# T1 sequence: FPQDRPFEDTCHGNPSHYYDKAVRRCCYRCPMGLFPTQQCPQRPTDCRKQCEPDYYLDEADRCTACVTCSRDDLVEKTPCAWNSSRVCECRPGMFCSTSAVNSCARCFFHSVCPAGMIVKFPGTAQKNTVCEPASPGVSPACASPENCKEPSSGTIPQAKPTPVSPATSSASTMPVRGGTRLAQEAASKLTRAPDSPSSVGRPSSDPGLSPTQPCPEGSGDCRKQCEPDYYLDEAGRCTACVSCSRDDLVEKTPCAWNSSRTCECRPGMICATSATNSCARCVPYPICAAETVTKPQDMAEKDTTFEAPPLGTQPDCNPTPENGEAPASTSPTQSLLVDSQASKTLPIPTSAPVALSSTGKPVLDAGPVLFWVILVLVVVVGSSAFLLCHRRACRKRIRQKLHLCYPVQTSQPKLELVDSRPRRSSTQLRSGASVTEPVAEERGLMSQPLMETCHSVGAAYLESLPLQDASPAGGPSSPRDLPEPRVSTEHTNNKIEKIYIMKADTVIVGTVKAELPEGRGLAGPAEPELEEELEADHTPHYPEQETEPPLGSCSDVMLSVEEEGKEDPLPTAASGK
# [2] = target: T1, human CD30; assay: flow cytometry, HDLM-2 cells
# In short: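 CD3×CD30 bispecific antibodies, 3-fold serial dilutions from 0.0046 to 10 μg/mL, incubated with 3×10⁴ SU-DHL-1 (ALCL) or HDLM-2 (HL) cells for 30 min at 4 °C, then secondary antibody 30 min at 4 °C. Live cells gated by FSC/SSC and TO-PRO-3 exclusion; binding curves fitted by four-parameter sigmoidal regression.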
# [3] = target: T2, rhesus monkey (Macaca mulatta) CD30 (rhesus monkey, UniProt P28908 19-595 (human entry)); assay: flow cytometry, Expi293F cells transfected with rhesus monkey CD30
# T2 construct: also called mmCD30
# T2 chain: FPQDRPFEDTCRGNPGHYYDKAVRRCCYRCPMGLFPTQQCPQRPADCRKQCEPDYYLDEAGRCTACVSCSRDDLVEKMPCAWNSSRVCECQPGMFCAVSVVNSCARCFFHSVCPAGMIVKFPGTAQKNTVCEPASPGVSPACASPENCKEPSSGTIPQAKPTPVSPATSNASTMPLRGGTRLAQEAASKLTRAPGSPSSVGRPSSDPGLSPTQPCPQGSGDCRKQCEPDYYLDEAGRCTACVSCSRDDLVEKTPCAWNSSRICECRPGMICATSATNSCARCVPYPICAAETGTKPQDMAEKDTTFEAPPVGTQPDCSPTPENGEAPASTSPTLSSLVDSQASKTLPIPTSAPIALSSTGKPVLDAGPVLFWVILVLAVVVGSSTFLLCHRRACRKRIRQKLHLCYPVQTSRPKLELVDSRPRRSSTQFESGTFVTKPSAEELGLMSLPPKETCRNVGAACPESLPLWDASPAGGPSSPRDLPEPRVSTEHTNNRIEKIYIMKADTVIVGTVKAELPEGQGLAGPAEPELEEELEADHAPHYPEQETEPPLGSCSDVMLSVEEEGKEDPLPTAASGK
# Experimental: Cells (3×10⁴ cells/well) were incubated in polystyrene 96-well round-bottom plates (Greiner bio-one, cat. no. 650180) with serial dilutions of antibodies (ranging from 0.005 to 10 μg/mL in 3-fold dilution steps) in 100 μL staining buffer at 4° C. for 30 min. Experiments were performed in technical duplicate. After washing twice in staining buffer, cells were incubated in 50 μL secondary antibody at 4° C. for 30 min. As a secondary antibody, R-PE-conjugated goat-anti-human IgG (Jackson ImmunoResearch, UK; cat. no. 109⁻¹¹⁶-098) diluted 1:400 in staining buffer was used. Cells were washed twice in staining buffer, resuspended in 30 μL staining buffer containing 0.4% EDTA and analyzed on an iQue Screener (Intellicyt Corporation, USA). Binding curves were analyzed using non-linear regression (sigmoidal dose-response with variable slope) using GraphPad Prism V9.0.0 software (GraphPad Software, San Diego, CA, USA).
binder,measurement,setting,value
B1,EC50,[1],0.16 µg/mL
same,EC50 (read off the curve),[2],~0.3 µg/mL
same,EC50 (read off the curve),[3],~0.2 µg/mL
